The target in the assay is EGFP-RABL2B (UniProt Q9UNT1). In words: co-immunoprecipitation (IP anti-EGFP, Western blot anti-Myc), IP/input band quantitation. The following applies: lysates from HEK293T cells; Input is 2.5% of lysate used for IP; parent: 100.

The record followed here is publication PMC7772773.

Sequence of EGFP-RABL2B (Q9UNT1 whole entry): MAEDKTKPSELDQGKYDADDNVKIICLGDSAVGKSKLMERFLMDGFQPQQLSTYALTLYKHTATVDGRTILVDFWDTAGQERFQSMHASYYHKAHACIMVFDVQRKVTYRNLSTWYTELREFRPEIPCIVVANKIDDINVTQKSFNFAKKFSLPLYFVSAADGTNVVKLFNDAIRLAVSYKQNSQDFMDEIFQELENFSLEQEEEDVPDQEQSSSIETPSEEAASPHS

CD8α-(HTR6-IC3)-myc R216A; K217A; Q218A: the percent of parent amounted to 29%.
